This note sets out measurements from PMC5220320 (Scientific Reports, 2017).

One data set deals with CC1=CC(=O)c2ccccc2C1=O. Nature of the data set: steady-state kinetics (KM); compromised binding. It is filed as biochemical, Caldalkalibacillus thermarum. The note with it: FAD quinone-binding site; clashes with the side chain of E379.
Data set [1] addresses T1, NDH-2 (type II NADH:quinone oxidoreductase) (Caldalkalibacillus thermarum, UniProt F5L3B8, G164E).
T1 construct: gene CathTA2_0279
T1 sequence (F5L3B8 1-399 G164E): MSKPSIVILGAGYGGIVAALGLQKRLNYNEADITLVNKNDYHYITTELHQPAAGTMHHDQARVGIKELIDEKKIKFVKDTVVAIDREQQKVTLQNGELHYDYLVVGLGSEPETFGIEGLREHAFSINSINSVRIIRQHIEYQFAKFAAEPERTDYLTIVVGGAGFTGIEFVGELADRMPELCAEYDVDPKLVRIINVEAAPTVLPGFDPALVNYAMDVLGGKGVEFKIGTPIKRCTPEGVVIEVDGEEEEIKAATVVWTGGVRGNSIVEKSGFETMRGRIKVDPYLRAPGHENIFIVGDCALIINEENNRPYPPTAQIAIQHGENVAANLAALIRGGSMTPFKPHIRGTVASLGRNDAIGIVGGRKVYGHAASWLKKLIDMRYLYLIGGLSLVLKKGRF
Nature of the data set: steady-state kinetics (KM); compromised binding, no CTC. Format: biochemical.

The target of data set [2] is T2, NDH-2 (type II NADH:quinone oxidoreductase) (Caldalkalibacillus thermarum, UniProt F5L3B8, I379E).
T2 construct: gene CathTA2_0279
T2 sequence (F5L3B8 1-399 I379E): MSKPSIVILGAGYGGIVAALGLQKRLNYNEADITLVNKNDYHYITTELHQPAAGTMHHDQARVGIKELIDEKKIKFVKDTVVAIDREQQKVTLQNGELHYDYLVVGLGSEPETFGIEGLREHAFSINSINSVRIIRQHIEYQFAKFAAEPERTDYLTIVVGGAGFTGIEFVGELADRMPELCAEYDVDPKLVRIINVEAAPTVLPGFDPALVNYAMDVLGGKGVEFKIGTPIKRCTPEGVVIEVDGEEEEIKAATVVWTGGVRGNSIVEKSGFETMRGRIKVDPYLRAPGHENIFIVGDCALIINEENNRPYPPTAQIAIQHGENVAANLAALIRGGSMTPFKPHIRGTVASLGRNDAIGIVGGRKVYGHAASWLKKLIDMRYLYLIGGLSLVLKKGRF
The experiment in a line: CTC formation by absorbance and stopped-flow flavin reduction. It is filed as binding.

For data set [3], the target named is T3, NDH-2 (type II NADH:quinone oxidoreductase) (Caldalkalibacillus thermarum, UniProt F5L3B8).
T3 construct: gene CathTA2_0279
T3 sequence (F5L3B8 1-399): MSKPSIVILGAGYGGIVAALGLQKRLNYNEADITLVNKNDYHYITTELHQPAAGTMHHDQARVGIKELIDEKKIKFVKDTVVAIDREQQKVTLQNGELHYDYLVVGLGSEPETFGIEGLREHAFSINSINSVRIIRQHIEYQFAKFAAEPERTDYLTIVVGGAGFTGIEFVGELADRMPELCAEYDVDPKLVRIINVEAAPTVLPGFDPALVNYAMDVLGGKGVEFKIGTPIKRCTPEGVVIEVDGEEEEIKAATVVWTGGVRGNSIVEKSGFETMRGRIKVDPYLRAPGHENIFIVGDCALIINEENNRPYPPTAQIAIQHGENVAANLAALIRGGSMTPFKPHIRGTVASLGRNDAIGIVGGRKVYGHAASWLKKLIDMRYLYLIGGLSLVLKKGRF
The experiment in a line: spectroscopic titration of reduced enzyme (CTC), upper limit for KD; co-crystal structure at […] Å. It is filed as binding.

Substrate in data set [4]: CC(=O)c1ccc[n+]([C@@H]2O[C@H](COP(=O)([O-])OP(=O)(O)OC[C@H]3O[C@@H](n4cnc5c(N)ncnc54)[C@H](O)[C@@H]3O)[C@@H](O)[C@H]2O)c1
The experiment in a line: purified protein. The settings on record: FAD competes with NAD+ for the reduced flavin.

Substrate in data set [5]: NC(=O)C1=CN([C@@H]2O[C@H](COP(=O)(O)OP(=O)(O)OC[C@H]3O[C@@H](n4cnc5c(N)ncnc54)[C@H](O)[C@@H]3O)[C@@H](O)[C@H]2O)C=CC1
The experiment in a line: purified protein. The settings on record: FAD nucleotide-binding site, nicotinamide ring juxtaposed over the flavin; E198 hydrogen bonds to the adenine ribose; F165 moves.

Substrate in data set [6]: CC1=CC(=O)c2ccccc2C1=O
Nature of the data set: steady-state kinetics (KM) and stopped-flow flavin reoxidation. The settings on record: FAD quinone-binding site on the opposite face of the flavin to the nucleotide-binding site; I379 at the entry. It is filed as biochemical, Caldalkalibacillus thermarum.

What is called Km is the concentration of substrate that gives half-maximal velocity. Regarding “NDH-2 (type II NADH:quinone oxidoreductase) (Caldalkalibacillus thermarum TA2.A1; I379E)”, the Km in the data set on CC1=CC(=O)c2ccccc2C1=O was determined as 780 µM.

Regarding `NC(=O)C1=CN([C@@H]2O[C@H](COP(=O)(O)OP(=O)(O)OC[C@H]3O[C@@H](n4cnc5c(N)ncnc54)[C@H](O)[C@@H]3O)[C@@H](O)[C@H]2O)C=CC1` [NADH], the Km in data set [1] is greater than 1000 µM. In addition, in data set [2], the “CTC formation by absorbance and stopped-flow flavin reduction” value is “When oxidized I379E reacts with NADH, the flavin is reduced and a CTC forms, as in the WT enzyme”.

By Kd is commonly meant a measure of binding affinity in units of concentration. High values mean weaker binding, low ones tighter binding. `NC(=O)c1ccc[n+]([C@@H]2O[C@H](COP(=O)([O-])OP(=O)(O)OC[C@H]3O[C@@H](n4cnc5c(N)ncnc54)[C@H](O)[C@@H]3O)[C@@H](O)[C@H]2O)c1` [NAD^+] displayed a Kd in data set [3] of less than 2000 nM.

B1: NDH-2 (type II NADH:quinone oxidoreductase) (Caldalkalibacillus thermarum TA2.A1) (protein)
chain: MSKPSIVILGAGYGGIVAALGLQKRLNYNEADITLVNKNDYHYITTELHQPAAGTMHHDQARVGIKELIDEKKIKFVKDTVVAIDREQQKVTLQNGELHYDYLVVGLGSEPETFGIEGLREHAFSINSINSVRIIRQHIEYQFAKFAAEPERTDYLTIVVGGAGFTGIEFVGELADRMPELCAEYDVDPKLVRIINVEAAPTVLPGFDPALVNYAMDVLGGKGVEFKIGTPIKRCTPEGVVIEVDGEEEEIKAATVVWTGGVRGNSIVEKSGFETMRGRIKVDPYLRAPGHENIFIVGDCALIINEENNRPYPPTAQIAIQHGENVAANLAALIRGGSMTPFKPHIRGTVASLGRNDAIGIVGGRKVYGHAASWLKKLIDMRYLYLIGGLSLVLKKGRF
For the molecule B1, the Km came out at 7.2 µM in the data set “purified protein [4]”, 29 µM in “purified protein [5]” and 34 µM in data set [6].
